# In the supplement of paper PMC9112550, “Optimization of the antimicrobial peptide Bac7 by deep mutational scanning” (BMC Biology, 2022):
# Test system: Escherichia coli TOP10
# Assay: shrunken log2 fold change of peptide-encoding DNA abundance (4.5 h post-induction vs induction); higher = less antimicrobial activity (less host growth inhibition)
# Conditions: time post-induction: 4.5 h; library: site-saturation at positions 5, 18, 19, 20
# 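Note: peptides expressed intracellularly from a pBAD plasmid library in pooled LB shake-flask culture, induced with 0.3% L-arabinose, DNA abundance read by NGS, three biological replicates, DESeq2 with apeglm shrinkage.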
row,Sequence,shrunken log2 fold change
1,RRIRRRPPRLPRPRPRPCGFPRP,0.265
2,RRIRGRPPRLPRPRPRPPTEPRP,1.04
3,RRIRCRPPRLPRPRPRPIVRPRP,-0.793
4,RRIRIRPPRLPRPRPRPSVVPRP,0.055
5,RRIRWRPPRLPRPRPRPGTTPRP,0.0295
6,RRIRYRPPRLPRPRPRPSSDPRP,-0.218
7,RRIRFRPPRLPRPRPRPLIVPRP,-0.473
8,RRIRYRPPRLPRPRPRPCLTPRP,-0.125
9,RRIRWRPPRLPRPRPRPEDIPRP,-0.0433
10,RRIRDRPPRLPRPRPRPAKPPRP,0.419
11,RRIRARPPRLPRPRPRPMFSPRP,-0.142
12,RRIRSRPPRLPRPRPRPNFPPRP,0.0832
13,RRIRVRPPRLPRPRPRPRVYPRP,-0.587
14,RRIRIRPPRLPRPRPRPMNMPRP,-0.375
15,RRIRARPPRLPRPRPRPTSDPRP,0.954
16,RRIRLRPPRLPRPRPRPDKTPRP,-0.146
17,RRIRKRPPRLPRPRPRPNKMPRP,-0.231
18,RRIRARPPRLPRPRPRPPPQPRP,1.31
19,RRIRQRPPRLPRPRPRPNEHPRP,-0.0963
20,RRIRGRPPRLPRPRPRPRLVPRP,0.725
21,RRIRFRPPRLPRPRPRPPGAPRP,0.847
22,RRIRRRPPRLPRPRPRPATTPRP,0.092
23,RRIRNRPPRLPRPRPRPNNMPRP,-0.278
24,RRIRARPPRLPRPRPRPHSGPRP,-0.0576
25,RRIRPRPPRLPRPRPRPRLIPRP,0.292

row,Sequence,shrunken log2 fold change
1,RRIRNRPPRLPRPRPRPFGVPRP,0.125
2,RRIRPRPPRLPRPRPRPKIFPRP,-0.0976
3,RRIRARPPRLPRPRPRPSRDPRP,0.199
4,RRIRARPPRLPRPRPRPRYGPRP,-0.0744
5,RRIRMRPPRLPRPRPRPIDRPRP,-0.0322
6,RRIRVRPPRLPRPRPRPFNQPRP,-0.19
7,RRIRRRPPRLPRPRPRPIGVPRP,0.273
8,RRIRMRPPRLPRPRPRPGLQPRP,4.5
9,RRIRARPPRLPRPRPRPVNMPRP,-0.527
10,RRIRNRPPRLPRPRPRPYDKPRP,-0.388
11,RRIRARPPRLPRPRPRPCFFPRP,0.145
12,RRIRQRPPRLPRPRPRPQGHPRP,-0.017
13,RRIRIRPPRLPRPRPRPLCSPRP,-0.682
14,RRIRGRPPRLPRPRPRPPWEPRP,0.528
15,RRIRMRPPRLPRPRPRPLTKPRP,0.212
16,RRIRMRPPRLPRPRPRPRTTPRP,0.714
17,RRIRERPPRLPRPRPRPPYCPRP,-0.275
18,RRIRLRPPRLPRPRPRPFCPPRP,-0.355
19,RRIRPRPPRLPRPRPRPRRNPRP,-0.0266
20,RRIRNRPPRLPRPRPRPVHKPRP,-0.182
21,RRIRPRPPRLPRPRPRPVIPPRP,-0.213
22,RRIRVRPPRLPRPRPRPKSLPRP,-0.0854
23,RRIRGRPPRLPRPRPRPGHHPRP,0.16
24,RRIRLRPPRLPRPRPRPHHQPRP,-0.162
25,RRIRWRPPRLPRPRPRPVYVPRP,-0.231

row,Sequence,shrunken log2 fold change
1,RRIRMRPPRLPRPRPRPLFLPRP,-0.254
2,RRIRFRPPRLPRPRPRPSCFPRP,-0.0773
3,RRIRGRPPRLPRPRPRPCFQPRP,0.106
4,RRIRGRPPRLPRPRPRPNASPRP,0.496
5,RRIRNRPPRLPRPRPRPFNCPRP,-0.112
6,RRIRWRPPRLPRPRPRPYLGPRP,-0.616
7,RRIRRRPPRLPRPRPRPRPWPRP,0.737
8,RRIRPRPPRLPRPRPRPQLRPRP,-0.0759
9,RRIRARPPRLPRPRPRPVIQPRP,0.0904
10,RRIRLRPPRLPRPRPRPTMTPRP,-0.256
11,RRIRRRPPRLPRPRPRPLYFPRP,-0.115
12,RRIRMRPPRLPRPRPRPIGWPRP,0.599
13,RRIRCRPPRLPRPRPRPPDQPRP,0.581
14,RRIRWRPPRLPRPRPRPARFPRP,0.461
15,RRIRARPPRLPRPRPRPDAKPRP,0.338
16,RRIRDRPPRLPRPRPRPKLNPRP,0.0523
17,RRIRFRPPRLPRPRPRPRKCPRP,-0.0611
18,RRIRLRPPRLPRPRPRPSDDPRP,-0.34
19,RRIRDRPPRLPRPRPRPGTVPRP,0.118
20,RRIRGRPPRLPRPRPRPACHPRP,0.889
21,RRIRGRPPRLPRPRPRPSIQPRP,0.176
22,RRIRERPPRLPRPRPRPYELPRP,-0.563
23,RRIRQRPPRLPRPRPRPHWTPRP,-0.0125
24,RRIRIRPPRLPRPRPRPPTEPRP,-0.323
25,RRIRYRPPRLPRPRPRPMIVPRP,-0.209

row,Sequence,shrunken log2 fold change
1,RRIRIRPPRLPRPRPRPFVMPRP,-0.275
2,RRIRIRPPRLPRPRPRPHCAPRP,-0.0649
3,RRIRIRPPRLPRPRPRPEEWPRP,-0.128
4,RRIRGRPPRLPRPRPRPYGYPRP,0.158
5,RRIRWRPPRLPRPRPRPRENPRP,0.707
6,RRIRKRPPRLPRPRPRPNSMPRP,-0.115
7,RRIRMRPPRLPRPRPRPSGTPRP,0.215
8,RRIRKRPPRLPRPRPRPAGLPRP,0.126
9,RRIRYRPPRLPRPRPRPERNPRP,0.00677
10,RRIRIRPPRLPRPRPRPGNYPRP,-0.261
11,RRIRRRPPRLPRPRPRPLWNPRP,0.117
12,RRIRSRPPRLPRPRPRPWQMPRP,0.0651
13,RRIRYRPPRLPRPRPRPVFPPRP,-0.0627
14,RRIRARPPRLPRPRPRPMHNPRP,-0.00444
15,RRIRARPPRLPRPRPRPCTMPRP,-0.207
16,RRIRERPPRLPRPRPRPRLEPRP,-0.0353
17,RRIRIRPPRLPRPRPRPRMRPRP,0.791
18,RRIRSRPPRLPRPRPRPQWWPRP,0.0138
19,RRIRNRPPRLPRPRPRPKQGPRP,0.0554
20,RRIRYRPPRLPRPRPRPISYPRP,-0.325
21,RRIRERPPRLPRPRPRPDFNPRP,-0.175
22,RRIRQRPPRLPRPRPRPSYFPRP,-0.515
23,RRIRGRPPRLPRPRPRPPYLPRP,-0.0342
24,RRIRFRPPRLPRPRPRPMRDPRP,0.109
25,RRIRNRPPRLPRPRPRPYILPRP,-1.07

row,Sequence,shrunken log2 fold change
1,RRIRHRPPRLPRPRPRPCRSPRP,-0.0622
2,RRIRVRPPRLPRPRPRPNRWPRP,-0.0283
3,RRIRMRPPRLPRPRPRPIVPPRP,0.208
4,RRIRARPPRLPRPRPRPCIHPRP,-0.438
5,RRIRMRPPRLPRPRPRPCYNPRP,-0.247
6,RRIRYRPPRLPRPRPRPKIEPRP,-0.00459
7,RRIRHRPPRLPRPRPRPKLSPRP,0.0757
8,RRIRGRPPRLPRPRPRPYREPRP,0.00752
9,RRIRERPPRLPRPRPRPQWFPRP,-0.166
10,RRIRTRPPRLPRPRPRPHEHPRP,-0.0451
11,RRIRFRPPRLPRPRPRPCVIPRP,0.0397
12,RRIRGRPPRLPRPRPRPIFRPRP,0.0691
13,RRIRWRPPRLPRPRPRPNSSPRP,-0.0636
14,RRIRPRPPRLPRPRPRPWGIPRP,-0.0138
15,RRIRFRPPRLPRPRPRPWMCPRP,-0.0872
16,RRIRDRPPRLPRPRPRPMHNPRP,-0.696
17,RRIRFRPPRLPRPRPRPYQMPRP,-0.0843
18,RRIRQRPPRLPRPRPRPSSGPRP,-0.0384
19,RRIRGRPPRLPRPRPRPKLDPRP,1.2
20,RRIRIRPPRLPRPRPRPSRDPRP,-0.0607
21,RRIRDRPPRLPRPRPRPKENPRP,0.0579
22,RRIRKRPPRLPRPRPRPVTLPRP,0.163
23,RRIRYRPPRLPRPRPRPRLHPRP,-0.415
24,RRIRHRPPRLPRPRPRPTLGPRP,-0.0595
25,RRIRERPPRLPRPRPRPMWVPRP,0.292

row,Sequence,shrunken log2 fold change
1,RRIRARPPRLPRPRPRPRAVPRP,1.11
2,RRIRERPPRLPRPRPRPHICPRP,0.0721
3,RRIRSRPPRLPRPRPRPWGPPRP,0.101
4,RRIRFRPPRLPRPRPRPCRCPRP,-0.735
5,RRIRPRPPRLPRPRPRPCIRPRP,-0.14
6,RRIRSRPPRLPRPRPRPHHWPRP,-0.221
7,RRIRRRPPRLPRPRPRPKPWPRP,0.274
8,RRIRNRPPRLPRPRPRPEYKPRP,-0.203
9,RRIRCRPPRLPRPRPRPWAIPRP,-0.0169
10,RRIRHRPPRLPRPRPRPGSPPRP,-0.171
11,RRIRCRPPRLPRPRPRPHSTPRP,-0.698
12,RRIRERPPRLPRPRPRPSCQPRP,-0.47
13,RRIRERPPRLPRPRPRPTCPPRP,-0.103
14,RRIRDRPPRLPRPRPRPFFAPRP,0.412
15,RRIRDRPPRLPRPRPRPCQPPRP,-0.144
16,RRIRFRPPRLPRPRPRPYTIPRP,0.0439
17,RRIRPRPPRLPRPRPRPMWLPRP,0.217
18,RRIRDRPPRLPRPRPRPTLWPRP,2.36
19,RRIRPRPPRLPRPRPRPDCWPRP,0.543
20,RRIRGRPPRLPRPRPRPALWPRP,0.985
21,RRIRYRPPRLPRPRPRPPYTPRP,-0.94
22,RRIRHRPPRLPRPRPRPKLPPRP,0.0191
23,RRIRQRPPRLPRPRPRPCFCPRP,-0.0837
24,RRIRNRPPRLPRPRPRPPGGPRP,0.748
25,RRIRTRPPRLPRPRPRPIPEPRP,-0.0588
